Measured values as given in a protein production outcome set (Wang et al. 2014).

Assay: label from the status in PepcDB records

Sequence | protein production
MKLRLRHHETRETLKLELADADTLHDLRRRINPTVPSSVHLSLNRKDELITPSPEDTLRSLGLISGDLIYFSLEAGESSNWKLRDSETVASQSESNQTSVHDSIGFAEVDVVPDQAKSNPNTSVEDPEGDISGMEGPEPMDVEQLDMELAAAGSKRLSEPFFLKNILLEKSGDTSELTTLALSVHAVMLESGFVLLNHGSDKFNFSKELLTVSLRYTLPELIKSKDTNTIESVSVKFQNLGPVVVVYGTVGGSSGRVHMNLDKRRFVPVIDLVMDTSTSDEEGSSSIYREVFMFWRMVKDRLVIPLLIGICDKAGLEPPPCLMRLPTELKLKILELLPGVSIGNMACVCTEMRYLASDNDLWKQKCLEEVNNFVVTEAGDSVNWKARFATFWRQKQLAAASDTFWRQNQLGRRNISTGRSGIRFPRIIGDPPFTWFNGDRMHGSIGIHPGQSARGLGRRTWGQLFTPRCNLGGLN | failed
MSLNSAAQAQSSDPVVIGCPAPLTGIVAADGIEFQRGIQMAADEINAVGGILGRPIELVFADTQSKGVDVVIQSAQRLIDRDNASALIAGYNLENGTALHDVAADAGVIAMHANTVAVHDEMVKSDPDRYWGTFQYDPPETLYGGGFLKFLKDIEDNGEFSRPNNKIAIITGPGIYSVNIANAIRDGAGEYGYDVSLFETVAIPVSDWGPTLAKLRADPPAVIVVTHFYPQDQALFMNQFMTDPTNSLVYLQYGASLAAFRDIAGDNSVGVTYATVLGTLQDEMGDAFAKAYKERYGDLSSTASGCQTYSALYAYSIAAALAGGPGAPYDDVQNKAVADRLRSLIFRGPVGTMRFHADTQSAWSYPTETNDPSLGMPHIFSQIFDKAEDGVLIAPAPYKKAGFKMPPWMKGEGHHHHHH | not failed
MADSTAMADAIWFGGPIVTIDAHTPSARAVAVRDGRIMAVGREHAVLRYRGPDTRMHDLRGATLLPGFVDAHSHVSTVGLEHHHHHH | failed
MSLTNGEENEEVLFCEKAKLLIFDSDTKGYTSRGVGELKLLRKKDDKGKVRVLCRSEGMGHVLLNTSVVKSFKYQPIDADNENLIKWPIITDGKLETFIIKVKQKADGRRLVGAVADAQQAMEGHHHHHH | not failed
MPDNFLIVPSADVQGGRLTTLSNAISTTDLNLTVTGLSNDTELVVYQLSTGVIGTPQAAAQPRETHVFALMGQSNMIGRAAFDGGAKWPDGTLQIGRGGDEDGAIIPARNPADGPATSRPLAHTGARLGNMGLDIQFAIDYLSDKPDVTLLFIPCAQGATGFSNGAWNPGDWLYNRETARINAAMNANPEFLFQGFLWHQGETDTGIPGTYGGLLDNLIAGLRRDVTAATPTTPFILGGLAAGNAGRDAITGIIAATPGRVPYTAFAPTADLSLTDANHFDAASFRTLGARYAAALASAAANQPGAPGIPTGLSAVAGDTEVTLSWSAPANTGGTALSDYIIERDSGSGFAALADGTGTTTGYTDSGLSNGTTYAYRVRAVNGTGTGAATPPQSATPAAPATGPVAEAGAQAHWLFGADNPTYADLVSGRIATGPAHALEAAYMTSPAGIRQGRDTGIAEADAQTMCFVFQLAGSANSMIGGTLTTSGSNGVSPYTSATTGIYANMRGGWGNPAISSASPYRTQFVFAAVSKNVATGNYVLFAGNGAGHDVLTGTSAQTTSPRTIGIGNLHFDRANFSGQISIAEAILFDSAKTEIELTEIYDRSRTRLAARGLTVV | failed
MDHYLRWRKRQKLLADFGEFALSNDNLADILTEACRLVGNALGTQRANVLEIEPSKRSLFVRAGVGLDDGIVGKLRLPMREIASERFSPDGSPLDIIHDVHTEPQYDLAAFMEVAGVVALVNVPILLPGRTLYGLLQVESSEPREFSQDDVEFLRTYSTILGPVIDRLNKVRALRDAEERFRLIVEAAR | not failed
MTTLYANVYLLSTPQGRLLLDTGTVNHAPAFARLLRSFDPDAVVVTHSHIDHAGNAFLAARLGYPVLAHPLEHDRLLGHDLSMPYPAGQPGVGRLVSRLHPRPGAERLGALYPGDTVRGWEVVHLPGHTDGQIGLQRDGVLLAADAVLSHPRTGAHLPREGYNWDHAVALQTLKKVADLDLHTVLPGHGRALDMAQVRARAVRDDEPGDRAEDAA | failed
IKENAAQEVLEVQKVIDRLADNGQKALKAFESYNQEQVDNIVHAMALAGLDQHMPLAKLAVEETGRGLYEDKCIKNIFATEYIWNNIKNNKTVGVINEDTQTGVIEIAEPVGVVAGVTPVTNPTSTTLFKAIIAIKTRNPIIFAFHPSAQRCSSEAAKVVYDAAVAAGAPEHCIQWVEKPSLEATKQLMNHDKVALVLATGGAGMVKSAYSTGKPALGVGPGNVPAYIDKTAKIKRSVNDIILSKSFDQGMICASE | failed
MIEENYKEERYTERVNQGGVWGSFKRKFLSWADDDAGYDEEKDYENLLNNEKLQKKLREWRRTKNQQNNNKTFNTNDTNSFETIQSVIAEQLNVDAVQVTPEAEFVKDLGADSDVVELIMALEEKFGIEIPDEQAEKIVNVGDVMRYIEKQLI | failed
MIAHLLLSLALLLTAAKLGGVLAVRLGQPAVLGELVAGIALGALPALGLHGAAGLAHDPVLEALAELGVILLLFEVGLSTRLAELVKVGASAFLVACIGVVAPMALGYGVGAWLLPGASPLAHLFLGAALSATSVGITARVLRDMGRIGSPAGQIILGAAVIDDVLGLLVLAVMVGLAGGGGDGAGTWTVLALVGAKAVGFLGAALVAGRWAAPRLFAVAARLRAQGVLFTLALAVCLALSWAASAVELAPIVGAFAAGLVLEGVPFAELSGGEERLEERLTPLAAVLVPLFFVRMGLAVDLGALGTGSLALAGALSVAAIVGKQACALAVVTPGVDRLAVGLGMIPRGEVGLIFANIGLSLTAGGRPLLGPGAFAAIVAMVLVTTLVTPPLLRWRMGSAPAAAAVRPGPGVRAA | failed
MSRDGGDVIETAVKSLGKGFDLTADFRLKYCKDGDGSAGDDRLVVLDQTQNRELHIPGFGVFQNVSADINCDKGERTRFRSDILDFNKMSEYFNQRSSVTGKIPSGNFNATFGFQSGSWATDAANVKSLGLDASVVTLFNLHIHNPNRLRLTDRVRNAVPSSWDPQLLARFIERYGTHVITGVSVGGQDVVVVRQDKSSDLDNDLLRHHLYDLGDQLFTGSCLLSTRRLNKAYHHSHSQPKFPEAFNVFDDKQTVAFNNFSINSQNGITVICAKRGGDGRAKSHSEWLITVPDKPDAINFNFIPITSLLKDVPGSGLLSHAMSLYLRYKPPLMDLQYFLDFSGPRAWAPVHNDLPFGAAPNMASAYPALHINFMGPKLYVNTTPVTSEKNPVTGMRFFLEGKKCNRLAIHLQHLDNTRTTVGEKITDEHIWRGSDQITDNDRYFEPLNGKKFSHVCTVPVKYDPNWIKTTSNHKSQNDVAFIVTGAQLEVKKHGSKSVLHLRLRYTKVSDHYVVQNSWVHGPIGTSQKSGIFSSMSMPLTSGSVHHNMIQKDKNEVVLDSGVFPGGPPVPANNKIVKFVDLSQLCRGPQHSPGHWLVTGVRLYLDKGKLCLHVKFALLHRQRLLVSS | failed
MSAFHIRAEQSRDISAIHDVTEAAFTGIEHSDGTEQDLVDKLRAAKALSLSLVAEADGEVIGHIAASEVLIGGGVQGWFGIGPVSVRPDKQQQGVGIALMGSALDQLRAEGAGGIVLLGDPGYYRRFGFEVVPGLVYPDAPAEFFMAVCLNAPAFPQGVVEYHSAFGG | failed
MLRSVYEMTKISKIIDELNNQQADAAWITTPLNVYYFTGYRSEPHERLFALLIKKDGKQVLFCPKMEVEEVKASPFTGEIVGYLDTENPFSLYPQTINKLLIESEHLTVARQKQLISGFNVNSFGDVDLTIKQLR | not failed
MSGDFDTIRDASSPDEVQLVRLLEEKIKSLQIEIENLRKELNYYKAEMEKMLSPPLIEAVVLDVLPDGRVLVRSSSGPNLVVNIASHIDQKLIKPGISVALNQRGSTILEVLPQKE | not failed
SEVIRSQKRTVSNDVVSTPTLPLYLTAPHMEVRLEEFELFAIDRLRVLKGVSDGLARARNPNEMDDLVETLWKEHMRLSDVSEMINKDIISHFVLRLVYCRSDELKKWFLSMETAPFRHRFRLKKIEEQRAIVGEFGLPYKAVIGAELESLKERLGLVARSHGQISSDVENIYYKVPFEEVPDLVASRRVLLQKGFAFVAGTQLVSLVVTQFRSHLSKALILTNRKWTTTIREREKDRLTPIVEALSTSYLGPDYSQSNEYADISLKDIDQVSKSSFPLCMRHLFEKLREDHHLKHGGRMQLGLFLKGVGLKLDDALAFWREEFTKKVGSERFDKEYAYAIRHNYGKEGKRTDYTPYACSKIITSAPGAGDHHGCPYRHFSEDNLKAALSRMGLSSRGMEDVMDKVRNRHYQLACTLTFEAVYGTSCDTGINHPNQYFEESQKILKSKTPAAPV | not failed
MPIRDDISWPPSAVCSVSLILHLPGRFGHVSVAHLLLDHGADVNAQNRLGASVLTVASRGGHLGVVKLLLEAGAFVDHHHPSGEQLGLGGSRDEPLDITALMAAIQHGHEAVVRLLMEWGADPNHAARTVGWSPLMLAALTGRLGVAQQLVEKGANPDHLSVLEKTAFEVALDCKHRDLVDYLDPLTTVRPKTGQAACPPWLHRGPQIVFMWLKLRIALLEGHAELRVQPCRPLRLRKWCA | not failed
MANENVAFENKRQVYHYEPPIQKEEAIPKQYFAGFWIRFLAYLVDLVVIAALKGIIINPIFRVSGMGMDDSFFTFYWGMTTIIFLAYFILLTKFFGQTLGKMLFGLRVVKLDGGKLTWLTVLFREGAMRFVLKTIWPLYVVCAFTPNKQGIADFFESTSVVHTGYLELDEKWVNGAKK | failed
MGKFLIPIEFVFLAIAMTCYLWHRQNQERRRIEISIKQQTQRERFINQITQHIRQSLNLETVLNTTVAEVKTLLQVDRVLIYRIWQDGTGSAITESVNANYPSILGRTFSDEVFPVEYHQAYTKGKVRAINDIDQDDIEICLADFVKQFGVKSKLVVPILQHNRASSLDNESEFPYLWGLLITHQCAFTRPWQPWEVELMKQLANQVAIAIQQSELYEQLQQLNKDLENRVEKRTQQLAATNQSLRMEISERQKTEAALRHTNHTLQSLIAASPRGIFTLNLADQIQIWNPTAERIFGWTETEIIAHPELLTSNILLEDYQQFKQKVLSGMVSPSLELKCQKKDGSWIEIVLSAAPLLDSEENIAGLVAVVADITEQKRQAEQIRLLQSVVVNTNDAVVITEAEPIDDPGPRILYVNEAFTKITGYTAEEMLGKTPRVLQGPKTSRTELDRVRQAISQWQSVTVEAEVLNDSYKEKKSPLK | failed
WERLRMLLEVCQFSRDASVAEAWLIAQEPYLASGDFGHTVDSVEKLIKRHEAFEKSTASWAERFAALEKPTTLELKERQIA | failed
MSYDVIVRNGLWFDGTGRPPQVRTLGIRDGVVATVSAKPLDETGCPEVIDAGGKWVVPGFIDVHTHYDAEVLLDPGLRESVRHGVTTVLLGMCSLSTVYSDAEDAADLFSRVEAVPRQFVLGALESRKTWSNPAEYVAAIDALPLGPNIASLLGHSDLRASVLGLDRATTRGVVPTDDELETMADRLDAALDAGMLGMSGMDAAIDKLDGDRFRSRALPSTFATWRERRRLIKVLRKRGRILQSAPNVAKAQEALNFFLESSSLFGRRRGVRMSLLVSADAKSSPGAARVIGMGTRLLNKTLDAKVRFQHLPVPFELYSDGIDLPVFEEFGAGTAALHLRDQLERNKLLADPEYRRRFRRSFDRRKLGPTLWHRDFHDATIVECPDESLIGKTFGRIADERGIHPLDAFLDVLVDNGEKNVRWTTIVANHRPKVLDQLANDPAVHMGFSDAGAHLRNMAFYNYPLRLLKRVRDAQLSGRPFLTTERAVYRLTAEVADWFGVDAGTLREGDRADFVVIDPNCLNSDVDAYHEETVPFYGGLSRMVNRNDDAVVATAVNGTVVFGKGEFRDGYGDTVKSGRYLRAGADSRLKTAVLEHHHHHH | failed
MNYLVLLIPVLFSFHQIFVRLGSREAETISGIYVSLLASTIIFIPSVANPTLDGMFLLYMSLAGVLHFFVARICFYHAISRIGANLSAPLSATRVFFAALLGIFVGEYLTLRVVVMSLLIFAGIVLISRPKGKADAFGVTLGILTGLFSALSSYFVKFGNAVDYNPLFAIFLGFALSTILMTPLAVRKDLSHTKFYLAAGVTVGIAHLLRYVVLKDVPVTVVEPITSSYPLFTLLLSAIFLREGEIFTLRSITGTLLILGGIYVYYA | failed
